Target: T1, hPCSK9 (Homo sapiens, UniProt Q8NBP7)
T1 construct: purchased Sino Biologicals, China
Assay: hPCSK9 challenge model (hepatic LDL-R expression in mice, Western Blot)
Assay type: in vivo, mouse
Settings: healthy control 100%, hPCSK9 alone 0%, dose of inhibitor 22 nmol/kg
Protocol: The aim of this study was to show the change in the LDL receptor expression level in mouse liver in response to inhibiting the action of intravenously injected hPCSK9 with an anti-PCSK9 peptide.
Healthy male BalBC or NMRI mice (Charles River, Germany) are injected with an anti-PCSK9 peptide, either s.c. or i.v. 15-120 minutes before injecting hPCSK9 (Sino Biologicals, China) intravenously in the tail vein at a dose of 0.4 mg/kg. Sixty minutes after the injection of hPCSK9, the animals are anaesthetised in isoflurane and euthanised by cervical dislocation. The liver is then quickly excised and snapfrozen in liquid nitrogen. The livers are kept at −80 degrees celsius until analysis.
The proteins were transferred to nitrocellulose membranes (iBlot 2 NC Regular stacks, novex # IB23001) according to manufacturer's instructions (Life Technology). Equal protein transfer was confirmed by Ponceau S (Sigma, P7170) staining of the membranes and the membranes were further blocked in blocking buffer (TBS-T, 2% Tween). […] Quantitative analysis of chemiluminescent signals from Western blots was done with MultiGauge software (Fujifilm).
“Vehicle-vehicle” is the group of healthy controls (baseline level), “vehicle-hPCSK9” is the group injected with hPCSK9 alone.

T1 sequence (Q8NBP7 153-692): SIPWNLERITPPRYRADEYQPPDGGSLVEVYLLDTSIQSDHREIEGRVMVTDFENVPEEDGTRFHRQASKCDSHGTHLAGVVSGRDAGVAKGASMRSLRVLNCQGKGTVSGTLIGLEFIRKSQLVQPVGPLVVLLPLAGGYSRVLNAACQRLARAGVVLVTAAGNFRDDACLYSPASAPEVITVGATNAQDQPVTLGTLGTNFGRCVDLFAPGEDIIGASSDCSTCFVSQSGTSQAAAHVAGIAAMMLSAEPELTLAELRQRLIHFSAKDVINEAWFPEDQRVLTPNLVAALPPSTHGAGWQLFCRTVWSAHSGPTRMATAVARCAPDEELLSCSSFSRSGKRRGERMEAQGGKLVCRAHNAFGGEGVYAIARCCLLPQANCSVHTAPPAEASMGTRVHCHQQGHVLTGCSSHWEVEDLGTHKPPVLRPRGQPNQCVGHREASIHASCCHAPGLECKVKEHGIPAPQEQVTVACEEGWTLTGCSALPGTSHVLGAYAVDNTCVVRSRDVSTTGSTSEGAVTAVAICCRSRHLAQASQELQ

Substance: Alirocumab: anti-PCSK9 antibody, control molecule in the hPCSK9 challenge model
- Percentage of baseline: 157%

— patent US20200165313A1, “EGF(A) ANALOGUES, PREPARATION, FORMULATIONS AND USES THEREOF” (Novo Nordisk A/S, priority 2017, published 2020)
